Assay results from patent publication US20250277030A1 (Zymeworks, published 2025).
One block for each binder: values may come before it.

Tests used:
[1] = target: T1, human sodium-dependent phosphate transporter 2B (NaPi2b) (human, UniProt O95436 1-690); experiment: flow cytometry, HEK293-6e cells transfected with human NaPi2b; apparent Kd
T1 construct: UniProt ID is given as 095436 [sic]; also called hNaPi2b; Hu NaPi2b
T1 sequence: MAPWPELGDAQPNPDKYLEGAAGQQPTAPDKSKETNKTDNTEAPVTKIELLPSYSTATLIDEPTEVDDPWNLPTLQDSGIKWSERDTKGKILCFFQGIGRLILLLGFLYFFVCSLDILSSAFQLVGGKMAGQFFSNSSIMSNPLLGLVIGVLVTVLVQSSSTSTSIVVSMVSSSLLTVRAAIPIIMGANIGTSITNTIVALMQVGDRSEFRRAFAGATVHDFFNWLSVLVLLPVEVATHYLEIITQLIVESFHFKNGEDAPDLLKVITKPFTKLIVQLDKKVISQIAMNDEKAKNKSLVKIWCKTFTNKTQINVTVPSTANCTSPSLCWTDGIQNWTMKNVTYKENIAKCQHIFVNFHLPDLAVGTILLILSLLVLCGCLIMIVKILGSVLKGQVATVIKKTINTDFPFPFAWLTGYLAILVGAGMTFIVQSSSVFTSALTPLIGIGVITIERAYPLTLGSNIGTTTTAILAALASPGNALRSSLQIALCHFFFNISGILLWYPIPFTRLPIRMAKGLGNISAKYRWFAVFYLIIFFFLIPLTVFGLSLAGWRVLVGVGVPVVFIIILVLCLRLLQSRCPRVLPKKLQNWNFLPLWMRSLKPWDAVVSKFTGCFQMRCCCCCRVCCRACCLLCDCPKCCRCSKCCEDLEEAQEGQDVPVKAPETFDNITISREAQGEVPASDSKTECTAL
Protocol: (§1) The binding cross-reactivity of humanized antibody variant v29456 to human, cynomolgus and mouse NaPi2b was assessed by flow cytometry using HEK293-6e transfected cells.
(§2) Briefly, HEK293-6e cells were transfected for ˜24 hours to transiently express human NaPi2b, cynomolgus or mouse NaPi2b, at 1 μg of DNA per 1 million cells. Following transfection, 50,000 cells per well were seeded in V-bottom 96-well plates and incubated with 200 nM of primary antibody for 18-24 hours at 4° C. to prevent internalization. Post-incubation, cells were washed and stained with anti-Human IgG Fc AF647 conjugate (Jackson Immuno Research Labs, West Grove, PA, Cat. No. 109-605-098, Lot. No. 124868) at 4° C. for 1 hour. Following staining and washing, fluorescence was detected by flow cytometry on BD LSRFortessa™ Cell Analyzer (BD Biosciences, Franklin Lake, NJ) with 10,000 minimum events collected per well. The AF647/APC-A GeoMean (fluorescence signal geometric mean, proportional to anti-Human AF647 binding) was calculated for the live singlet cell population for each primary antibody using FlowJo™ v8 software (BD Biosciences, Franklin Lake, NJ). The Bmax and Kd of each primary antibody were calculated using GraphPad Prism Version 9 (GraphPad Software, San Diego, CA)

[2] = target: T1, human sodium-dependent phosphate …; experiment: flow cytometry, IGROV-1 cells (endogenous NaPi2b); apparent Kd
Protocol: (§3) Briefly, cells were seeded at 50,000 cells/well in conical-bottom 96-well plates and treated with test antibody for 24 hours at 4° C. to prevent internalization. […] Following incubation, cells were washed and stained with anti-Human IgG Fc AF647 conjugate (Jackson Immuno Research Labs, West Grove, PA; Cat. No. 109-605-098) at 4° C. for 30 min. Following incubation and washing, fluorescence was detected by flow cytometry on a BD LSRFortessa™ Cell Analyzer (BD Biosciences, Franklin Lake, NJ) with 1,000 minimum events collected per well. The AF647/APC-A GeoMean (fluorescence signal geometric mean, proportional to anti-Human AF647 binding) was calculated for the live cell population using FlowJo™ Version 10.8.1 (BD Biosciences, Franklin Lake, NJ) and plotted for each test antibody using GraphPad Prism Version 9 (GraphPad Software, San Diego, CA).
(§4) The ability of the humanized antibody variants v38591 and v29456 to bind to NaPi2b expressed on cells was assessed on endogenous NaPi2b-expressing tumor cell lines IGROV-1 (ovarian adenocarcinoma) and TOV-21G (ovarian carcinoma) by flow cytometry.
(§5) Cellular binding was performed according to methods described in Example 13.

[3] = target: T1, human sodium-dependent phosphate …; experiment: flow cytometry, HEK293-6e cells transfected with human NaPi2b
Protocol: as §1, §2

[4] = target: T1, human sodium-dependent phosphate …; experiment: flow cytometry on IGROV-1 cells (endogenous NaPi2b), 24 h at 4 C, anti-human IgG Fc AF647 detection
Protocol: as §3, §4, §5

[5] = target: T1, human sodium-dependent phosphate …; experiment: flow cytometry, TOV-21G cells (endogenous NaPi2b); apparent Kd
Protocol: as §3, §4, §5

cynomolgus monkey NaPi2b [6] = target: T2, cynomolgus monkey NaPi2b (cynomolgus monkey, UniProt O95436 1-690 (human entry)); experiment: flow cytometry, HEK293-6e cells transfected with cynomolgus NaPi2b; apparent Kd
T2 construct: Transiently expressed on HEK293-6e cells; also called Cyno NaPi2b
T2 chain: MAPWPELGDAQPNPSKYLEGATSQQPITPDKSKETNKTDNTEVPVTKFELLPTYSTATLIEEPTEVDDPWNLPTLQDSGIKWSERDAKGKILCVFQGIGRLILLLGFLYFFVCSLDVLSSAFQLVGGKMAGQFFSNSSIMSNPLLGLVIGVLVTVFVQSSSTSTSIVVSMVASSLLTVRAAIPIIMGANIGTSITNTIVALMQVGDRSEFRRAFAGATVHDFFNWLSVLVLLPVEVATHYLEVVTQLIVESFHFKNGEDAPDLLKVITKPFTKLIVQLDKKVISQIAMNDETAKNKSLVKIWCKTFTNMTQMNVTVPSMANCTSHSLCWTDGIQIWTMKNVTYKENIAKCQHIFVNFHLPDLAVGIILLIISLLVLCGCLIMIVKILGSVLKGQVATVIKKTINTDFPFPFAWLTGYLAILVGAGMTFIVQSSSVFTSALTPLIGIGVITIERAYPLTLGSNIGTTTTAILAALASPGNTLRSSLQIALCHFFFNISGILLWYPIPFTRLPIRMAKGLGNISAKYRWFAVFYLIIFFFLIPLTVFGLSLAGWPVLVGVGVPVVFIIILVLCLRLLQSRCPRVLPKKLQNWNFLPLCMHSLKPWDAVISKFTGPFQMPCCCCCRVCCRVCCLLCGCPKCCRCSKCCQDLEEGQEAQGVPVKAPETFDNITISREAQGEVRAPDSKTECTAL
Protocol: as §1, §2

cynomolgus monkey NaPi2b [7] = target: T2, cynomolgus monkey NaPi2b; experiment: flow cytometry, HEK293-6e cells transfected with cynomolgus NaPi2b
Protocol: as §1, §2

[8] = target: T1, human sodium-dependent phosphate …; experiment: flow cytometry, HEK293-6e cells transfected with human NaPi2b; apparent Kd; remark: listed apart in the source
Protocol: The binding cross-reactivity of humanized antibody variant v38591 to human NaPi2b, NaPi2a, and NaPi2c was assessed by flow cytometry using HEK293-6e transfected cells.
Following transfection, cells were seeded at 50,000 cells/well in conical-bottom 96-well plates and treated with test antibody for 24 hours at 4° C. to prevent internalization. Following incubation, cells were washed and stained with anti-Human IgG Fc AF647 conjugate (Jackson Immuno Research Labs, West Grove, PA; Cat. No. 109-605-098) or anti-Rabbit IgG F(ab″)2 AF647 conjugate (Jackson Immuno Research Labs, West Grove, PA; Cat. No. 111-605-047). Following incubation and washing, fluorescence was detected by flow cytometry on a BD LSRFortessa™ Cell Analyzer (BD Biosciences, Franklin Lake, NJ) with 1,000 minimum events collected per well. The AF647/APC-A GeoMean (fluorescence signal geometric mean, proportional to anti-Human AF647 binding) was calculated for the live cell population using FlowJo™ Version 10.8.1 (BD Biosciences, Franklin Lake, NJ) and plotted for each test antibody using GraphPad Prism Version 9 (GraphPad Software, San Diego, CA).

[9] = target: T1, human sodium-dependent phosphate …; experiment: flow cytometry on TOV-21G cells (endogenous NaPi2b), 24 h at 4 C, anti-human IgG Fc AF647 detection
Protocol: as §3, §4, §5

[10] = target: T1, human sodium-dependent phosphate …; experiment: flow cytometry on IGROV-1 cells (endogenous NaPi2b), 24 h at 4 C, anti-human IgG Fc AF647 detection; remark: listed apart in the source
Protocol: (§6) IGROV-1 cells express endogenous NaPi2b at a high level.
as §3

[11] = target: T1, human sodium-dependent phosphate …; experiment: flow cytometry, IGROV-1 cells (endogenous NaPi2b), 24 h at 4 °C
Protocol: as §6, §3

[12] = target: T1, human sodium-dependent phosphate …; experiment: flow cytometry, IGROV-1 cells (endogenous NaPi2b), 24 h at 4 °C; apparent Kd
Protocol: as §6, §3

[13] = target: T1, human sodium-dependent phosphate …; experiment: KinExA, IGROV-1 cells (endogenous NaPi2b) as titrant, monovalent antibody constant at 50 and 500 pM, N-curve analysis
Protocol: The cell-binding assay was set up using the antibody constructs or variants as constant binding partner at two different concentrations of 50 pM and 500 pM. For the titration curve with antibody variants fixed at 50 pM, at least 10 million IGROV-1 cells were used as titrant. For the titration curve with antibody variants fixed at 500 pM, at least 5 million cells were used as titrant. The antibody variants and cells were mixed in PBS pH 7.4, 1 mg/mL BSA, 0.2% NaN₃ and incubated at 4° C. for 7 days with gentle rotation until equilibrium was reached. After incubation, the mixture of antibody variants and cells was centrifuged to separate the cells from the unbound free antibody variants. The free antibody variants were loaded onto the KinExA 3200 (Sapidyne, Boise, Idaho) with biotinylated—anti-human IgG PMMA as solid phase and 0.5 μg/mL of Alexa 647 goat anti-human IgG (Jackson ImmunoResearch, West Grove, PA) as detection antibody.
N-curve analysis was used to calculate the affinity and receptor expression level with the concentrations of antibody variant as reference point.

Kd [1]: 1.22 nM
Kd [2]: 0.81 nM
Bmax (APC-A GeoMean) [3]: 1610 APC-A GeoMean
EC50 (read off the curve) [4]: ~0.8 nM
Kd [5]: 0.67 nM
Kd (cynomolgus monkey NaPi2b [6]): 6.27 nM
Bmax (APC-A GeoMean) (cynomolgus monkey NaPi2b [7]): 1560 APC-A GeoMean
Kd [8]: 5.76 nM
EC50 (read off the curve) [9]: ~0.7 nM
B1: v18993, reference anti-NaPi2b antibody lifastuzumab (antibody, human IgG1, kappa)
heavy 1: GEVQLVESGGGLVQPGGSLRLSCAASGFSFSDFAMSWVRQAPGKGLEWVATIGRVAFHTYYPDSMKGRFTISRDNSKNTLYLQMNSLRAEDTAVYYCARHRGFDVGHFDFWGQGTLVTVSSASTKGPSVFPLAPSSKSTSGGTAALGCLVKDYFPEPVTVSWNSGALTSGVHTFPAVLQSSGLYSLSSVVTVPSSSLGTQTYICNVNHKPSNTKVDKKVEPKSCDKTHTCPPCPAPELLGGPSVFLFPPKPKDTLMISRTPEVTCVVVDVSHEDPEVKFNWYVDGVEVHNAKTKPREEQYNSTYRVVSVLTVLHQDWLNGKEYKCKVSNKALPAPIEKTISKAKGQPREPQVYVYPPSRDELTKNQVSLTCLVKGFYPSDIAVEWESNGQPENNYKTTPPVLDSDGSFALVSKLTVDKSRWQQGNVFSCSVMHEALHNHYTQKSLSLSPG
heavy 2: not shown
light: GDIQMTQSPSSLSASVGDRVTITCRSSETLVHSSGNTYLEWYQQKPGKAPKLLIYRVSNRFSGVPSRFSGSGSGTDFTLTISSLQPEDFATYYCFQGSFNPLTFGQGTKVEIKRTVAAPSVFIFPPSDEQLKSGTASVVCLLNNFYPREAKVQWKVDNALQSGNSQESVTEQDSKDSTYSLSSTLTLSKADYEKHKVYACEVTHQGLSSPVTKSFNRGEC
notes: Two different heavy chain clones (CL_#11677, CL_#11678)

EC50 (read off the curve) [10]: ~0.8 nM
Bmax (MFI) [11]: 43700 MFI
Kd [12]: 0.84 nM
B2: v23855, parental mouse-human chimeric anti-NaPi2b IgG1/kappa antibody (antibody, V domains shown)
VH: QAYLQQSGAELVRPGASVKMSCKASGFTFTSYNVHWVKQTPRQGLEWIAAISPGNGDLSYNQRFKDKATLTVDRSSSTAYMQLSGLTSEDSAVYFCARGRTGMGAVDYWGQGTSVTVSS
VL: DVQMTQTASSLSASLGDRVTISCRASQDVYSYLNWYQQKPHGTVKLLIYYTSRLQSGVPSRFTGSGSGTDYSLTISNLEPEDIATYYCQQYNIFPWTFGGGTKLEIKR
notes: Full-size antibody: mouse VH/VL appended to human IGHG1*01 CH1-hinge-CH2-CH3 (ends at G446) and IGKC*01; also called parental chimeric

Kd [13]: 0.15 nM
B3: v29814, monovalent format of parental chimeric variant 23855 (antibody, V domains shown)
VH: QAYLQQSGAELVRPGASVKMSCKASGFTFTSYNVHWVKQTPRQGLEWIAAISPGNGDLSYNQRFKDKATLTVDRSSSTAYMQLSGLTSEDSAVYFCARGRTGMGAVDYWGQGTSVTVSS
VL: DVQMTQTASSLSASLGDRVTISCRASQDVYSYLNWYQQKPHGTVKLLIYYTSRLQSGVPSRFTGSGSGTDYSLTISNLEPEDIATYYCQQYNIFPWTFGGGTKLEIK
notes: Only said to be the monovalent format of v23855; it is captured and detected with anti-human IgG; also called v29814 (parental chimeric)
